In patent US20140162289A1:

Molecular target: ADRB2-luc234R233 (β2 adrenergic receptor fused at its C terminus to permuted firefly luciferase with R at the X position of the TEV cleavage site) (firefly) (UniProt P07550)
Assay: cell-based or functional assay

Human β arrestin 2-TEV fusion (tobacco etch virus protease A fused to the C terminus of β arrestin 2), sequence (P32121 1-409, tags or fused parts left off): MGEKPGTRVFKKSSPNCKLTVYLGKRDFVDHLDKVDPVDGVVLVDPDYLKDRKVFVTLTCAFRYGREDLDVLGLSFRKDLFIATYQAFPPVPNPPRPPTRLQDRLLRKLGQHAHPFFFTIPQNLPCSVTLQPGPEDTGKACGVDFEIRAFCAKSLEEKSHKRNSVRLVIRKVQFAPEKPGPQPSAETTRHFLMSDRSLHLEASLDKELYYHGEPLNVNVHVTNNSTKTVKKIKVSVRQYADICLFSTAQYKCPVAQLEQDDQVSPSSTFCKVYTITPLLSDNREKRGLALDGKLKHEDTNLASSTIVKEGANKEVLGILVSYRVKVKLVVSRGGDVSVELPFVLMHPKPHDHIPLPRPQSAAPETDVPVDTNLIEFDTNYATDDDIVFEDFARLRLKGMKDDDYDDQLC

Human β arrestin 2-TEV fusion (tobacco etch virus protease A fused to the C terminus of β arrestin 2) (from UniProt P32121 1-409; P04517 2040-2279)
> 3 fold: relative luminescence (reconstituted permuted luciferase) in co-transfected CHO-K1 cells, with or without 10 µM isoproterenol, 2 hours | relative luminescence in co-transfected CHO-K1 cells, with or without 10 µM isoproterenol, 2 hours | relative luminescence units in cotransfected CHO-K1 cells, with or without 10 µM ADRB2 agonist, 2 hours
